In patent US20120316071A1 (published 2012):
Residue numbers refer to the chain shown, from its start. Names may count otherwise.

What was measured:
[1] = molecular target: T1, rHuman ErbB2/Fc Chimera, CF (R&D Systems Cat#1129-ER) (human, UniProt P04626 23-652); assay: ECL Multispot (MSD) assay, antigen spotted on plate, 10 nM Fab; blank spot 407
T1 construct: Bought recombinant Fc chimera; also called human epidermal growth factor 2 receptor; Fc part of the bought chimera not given

[2] = molecular target: T2, rHuman EGF R/Fc Chimera, CF (R&D Systems Cat#344-ER) (human, UniProt P00533 25-645); assay: as above
T2 construct: Bought recombinant Fc chimera; also called epidermal growth factor receptor; Fc part of the bought chimera not given

[3] = molecular target: T3, rHuman IGF-1 sR, CF (R&D Systems Cat#391-GR) (human, UniProt P08069 31-932); assay: as above
T3 construct: Bought soluble receptor; also called insulin-like growth factor-1 soluble receptor

[4] = molecular target: T4, Recombinant Human DLL4 (R&D Systems Cat#1506-D4/CF) (human, UniProt Q9NR61 27-524); assay: as above
T4 construct: Bought recombinant protein; also called delta-like protein 4; rHuman DLL4

[5] = molecular target: T5, rHuman HGF R/c-MET/Fc Chimera, CF (R&D Systems Cat#358-MT/CF) (human, UniProt P08581 25-932); assay: as above
T5 construct: Bought recombinant Fc chimera; also called HGF R/Fc; hepatocyte growth factor receptor; Fc part of the bought chimera not given

[6] = molecular target: T6, rHuman P-Cadherin/Fc Chimera, CF (R&D Systems Cat#861-PC) (human, UniProt P22223 108-654); assay: as above
T6 construct: Bought recombinant Fc chimera; Fc part of the bought chimera not given

[7] = molecular target: T1, rHuman ErbB2/Fc Chimera, CF (R&D …); assay: ECL Multispot (MSD) assay, antigen spotted on plate, 10 nM Fab; blank spot 338
[8] = molecular target: T2, rHuman EGF R/Fc Chimera, CF (R&D …); assay: as above
[9] = molecular target: T3, rHuman IGF-1 sR, CF (R&D Systems …); assay: as above
[10] = molecular target: T4, Recombinant Human DLL4 (R&D Systems …); assay: as above
[11] = molecular target: T5, rHuman HGF R/c-MET/Fc Chimera, CF (R&D …); assay: as above
[12] = molecular target: T6, rHuman P-Cadherin/Fc Chimera, CF (R&D …); assay: as above
[13] = molecular target: T1, rHuman ErbB2/Fc Chimera, CF (R&D …); assay: ECL Multispot (MSD) assay, antigen spotted on plate, 10 nM Fab; blank spot 367
[14] = molecular target: T2, rHuman EGF R/Fc Chimera, CF (R&D …); assay: as above
[15] = molecular target: T7, rHuman CD44/Fc Chimera, CF (R&D Systems Cat#3660-CD) (human, UniProt P16070 21-220); assay: as above
T7 construct: Bought recombinant Fc chimera; Fc part of the bought chimera not given

[16] = molecular target: T3, rHuman IGF-1 sR, CF (R&D Systems …); assay: as above
[17] = molecular target: T4, Recombinant Human DLL4 (R&D Systems …); assay: as above
[18] = molecular target: T8, rHuman Erythropoietin R/Fc Chimera, CF (R&D Systems Cat#963-ER) (human, UniProt P19235 25-250); assay: as above
T8 construct: Bought recombinant Fc chimera; also called EPO R; EPO R/Fc; Fc part of the bought chimera not given
T8 sequence (looked up): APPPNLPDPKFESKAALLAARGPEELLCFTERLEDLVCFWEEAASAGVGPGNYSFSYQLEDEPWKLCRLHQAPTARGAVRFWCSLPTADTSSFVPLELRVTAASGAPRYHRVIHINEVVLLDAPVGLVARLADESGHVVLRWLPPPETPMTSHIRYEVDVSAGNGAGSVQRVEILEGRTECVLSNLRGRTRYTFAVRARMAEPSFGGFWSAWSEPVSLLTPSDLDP

[19] = molecular target: T9, rHuman Notch-1/Fc Chimera, CF (R&D Systems Cat#3647-TK) (human, UniProt P46531 19-526); assay: as above
T9 construct: Bought recombinant Fc chimera; Fc part of the bought chimera not given

[20] = molecular target: T5, rHuman HGF R/c-MET/Fc Chimera, CF (R&D …); assay: as above
[21] = molecular target: T6, rHuman P-Cadherin/Fc Chimera, CF (R&D …); assay: as above
[22] = molecular target: T1, rHuman ErbB2/Fc Chimera, CF (R&D …); assay: ECL Multispot (MSD) assay, antigen spotted on plate, 10 nM Fab; blank spot 151
[23] = molecular target: T2, rHuman EGF R/Fc Chimera, CF (R&D …); assay: as above
[24] = molecular target: T7, rHuman CD44/Fc Chimera, CF (R&D Systems …); assay: as above
[25] = molecular target: T3, rHuman IGF-1 sR, CF (R&D Systems …); assay: as above
[26] = molecular target: T4, Recombinant Human DLL4 (R&D Systems …); assay: as above
[27] = molecular target: T8, rHuman Erythropoietin R/Fc Chimera, CF …; assay: as above
[28] = molecular target: T9, rHuman Notch-1/Fc Chimera, CF (R&D …); assay: as above
[29] = molecular target: T5, rHuman HGF R/c-MET/Fc Chimera, CF (R&D …); assay: as above
[30] = molecular target: T6, rHuman P-Cadherin/Fc Chimera, CF (R&D …); assay: as above
[31] = molecular target: T1, rHuman ErbB2/Fc Chimera, CF (R&D …); assay: ECL Multispot (MSD) assay, antigen spotted on plate, 10 nM Fab; blank spot 322
[32] = molecular target: T2, rHuman EGF R/Fc Chimera, CF (R&D …); assay: as above
[33] = molecular target: T7, rHuman CD44/Fc Chimera, CF (R&D Systems …); assay: as above
[34] = molecular target: T3, rHuman IGF-1 sR, CF (R&D Systems …); assay: as above
[35] = molecular target: T4, Recombinant Human DLL4 (R&D Systems …); assay: as above
[36] = molecular target: T8, rHuman Erythropoietin R/Fc Chimera, CF …; assay: as above
[37] = molecular target: T9, rHuman Notch-1/Fc Chimera, CF (R&D …); assay: as above
[38] = molecular target: T5, rHuman HGF R/c-MET/Fc Chimera, CF (R&D …); assay: as above
[39] = molecular target: T6, rHuman P-Cadherin/Fc Chimera, CF (R&D …); assay: as above

T5 sequence (P08581 25-932, change not shown): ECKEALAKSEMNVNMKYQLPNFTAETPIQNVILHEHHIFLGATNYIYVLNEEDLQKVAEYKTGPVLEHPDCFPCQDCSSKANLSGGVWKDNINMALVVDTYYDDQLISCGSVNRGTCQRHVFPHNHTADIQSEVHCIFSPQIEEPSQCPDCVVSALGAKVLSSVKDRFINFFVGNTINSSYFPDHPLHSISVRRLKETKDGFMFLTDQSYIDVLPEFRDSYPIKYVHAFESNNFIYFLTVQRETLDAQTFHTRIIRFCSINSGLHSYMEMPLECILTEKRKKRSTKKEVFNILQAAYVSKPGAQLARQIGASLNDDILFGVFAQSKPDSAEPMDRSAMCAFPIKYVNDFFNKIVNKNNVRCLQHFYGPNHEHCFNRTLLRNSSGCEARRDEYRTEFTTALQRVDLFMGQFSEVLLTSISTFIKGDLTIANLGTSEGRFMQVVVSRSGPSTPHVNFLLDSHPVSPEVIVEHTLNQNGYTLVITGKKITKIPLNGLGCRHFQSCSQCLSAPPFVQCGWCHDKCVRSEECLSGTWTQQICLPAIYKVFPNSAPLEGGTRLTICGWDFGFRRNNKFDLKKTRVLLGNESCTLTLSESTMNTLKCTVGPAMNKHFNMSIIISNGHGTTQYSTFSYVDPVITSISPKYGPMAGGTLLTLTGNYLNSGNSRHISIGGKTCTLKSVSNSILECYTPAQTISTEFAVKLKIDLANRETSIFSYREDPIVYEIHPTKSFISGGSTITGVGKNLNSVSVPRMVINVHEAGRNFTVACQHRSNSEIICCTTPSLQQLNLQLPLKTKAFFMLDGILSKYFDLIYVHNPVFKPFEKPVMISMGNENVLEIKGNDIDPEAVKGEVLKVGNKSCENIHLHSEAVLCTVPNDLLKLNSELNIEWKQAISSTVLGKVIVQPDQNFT

B1: Fab VH1-46_IGHD6-6*01_IGHJ1*01 S102A/S103P/S104F/H111F & L6_IGKJ1*01 (Fab, V domains shown)
VH: QVQLVQSGAEVKKPGASVKVSCKASGYTFTSYYMHWVRQAPGQGLEWMGIINPSGGSTSYAQKFQGRVTMTRDTSTSTVYMELSSLRSEDTAVYYCAREEYAPFSAEYFQFWGQGTLVTVSS
VL: not shown
notes: Fab expressed in E. coli: VH joined to CH1 from Plasmid A (with His6 and Flag tags), VL joined to kappa CL from Plasmid C; also called APFF; H:APFF & L:wt
- ECL signal [1]: 292
- ECL signal [2]: 329
- ECL signal [3]: 357
- ECL signal [4]: 126000
- ECL signal [5]: 237
- ECL signal [6]: 277
- ECL signal [7]: 379
- ECL signal [8]: 425
- ECL signal [9]: 468
- ECL signal [10]: 149000
- ECL signal [11]: 332
- ECL signal [12]: 399

B2: Fab VH1-46_IGHD6-6*01_IGHJ1*01 S102A/S103P/S104F/H111F S84K & L6_IGKJ1*01 (Fab, V domains shown)
VH: B1 VH with S84K
VL: not shown
notes: Fab expressed in E. coli: VH joined to CH1 from Plasmid A (with His6 and Flag tags), VL joined to kappa CL from Plasmid C; also called APFF S84K
- ECL signal [13]: 354
- ECL signal [14]: 301
- ECL signal [15]: 386
- ECL signal [16]: 405
- ECL signal [17]: 164000
- ECL signal [18]: 528
- ECL signal [19]: 400
- ECL signal [20]: 317
- ECL signal [21]: 517

B3: Fab VH1-46_IGHD6-6*01_IGHJ1*01 S102A/S103P/S104F/H111F S84T & L6_IGKJ1*01 (Fab, V domains shown)
VH: B1 VH with S84T
VL: not shown
notes: Fab expressed in E. coli: VH joined to CH1 from Plasmid A (with His6 and Flag tags), VL joined to kappa CL from Plasmid C; also called APFF S84T
- ECL signal [22]: 297
- ECL signal [23]: 293
- ECL signal [24]: 352
- ECL signal [25]: 281
- ECL signal [26]: 163000
- ECL signal [27]: 328
- ECL signal [28]: 372
- ECL signal [29]: 274
- ECL signal [30]: 180

B4: Fab VH1-46_IGHD6-6*01_IGHJ1*01 S102A/S103P/S104F/H111F S84R & L6_IGKJ1*01 (Fab, V domains shown)
VH: B1 VH with S84R
VL: not shown
notes: Fab expressed in E. coli: VH joined to CH1 from Plasmid A (with His6 and Flag tags), VL joined to kappa CL from Plasmid C; also called APFF S84R
- ECL signal [31]: 372
- ECL signal [32]: 435
- ECL signal [33]: 335
- ECL signal [34]: 395
- ECL signal [35]: 139000
- ECL signal [36]: 393
- ECL signal [37]: 377
- ECL signal [38]: 392
- ECL signal [39]: 310
